Our source for the Kd values is PMC10617981 (2023).

The target in the test is T1, SND1 recombinant protein (Origene, TP300059) (human, UniProt Q7KZF4 1-910, site-specific cysteine labeling with the RED-MALEIMIDE 2nd Generation kit (fluorescent dye)).
T1 chain: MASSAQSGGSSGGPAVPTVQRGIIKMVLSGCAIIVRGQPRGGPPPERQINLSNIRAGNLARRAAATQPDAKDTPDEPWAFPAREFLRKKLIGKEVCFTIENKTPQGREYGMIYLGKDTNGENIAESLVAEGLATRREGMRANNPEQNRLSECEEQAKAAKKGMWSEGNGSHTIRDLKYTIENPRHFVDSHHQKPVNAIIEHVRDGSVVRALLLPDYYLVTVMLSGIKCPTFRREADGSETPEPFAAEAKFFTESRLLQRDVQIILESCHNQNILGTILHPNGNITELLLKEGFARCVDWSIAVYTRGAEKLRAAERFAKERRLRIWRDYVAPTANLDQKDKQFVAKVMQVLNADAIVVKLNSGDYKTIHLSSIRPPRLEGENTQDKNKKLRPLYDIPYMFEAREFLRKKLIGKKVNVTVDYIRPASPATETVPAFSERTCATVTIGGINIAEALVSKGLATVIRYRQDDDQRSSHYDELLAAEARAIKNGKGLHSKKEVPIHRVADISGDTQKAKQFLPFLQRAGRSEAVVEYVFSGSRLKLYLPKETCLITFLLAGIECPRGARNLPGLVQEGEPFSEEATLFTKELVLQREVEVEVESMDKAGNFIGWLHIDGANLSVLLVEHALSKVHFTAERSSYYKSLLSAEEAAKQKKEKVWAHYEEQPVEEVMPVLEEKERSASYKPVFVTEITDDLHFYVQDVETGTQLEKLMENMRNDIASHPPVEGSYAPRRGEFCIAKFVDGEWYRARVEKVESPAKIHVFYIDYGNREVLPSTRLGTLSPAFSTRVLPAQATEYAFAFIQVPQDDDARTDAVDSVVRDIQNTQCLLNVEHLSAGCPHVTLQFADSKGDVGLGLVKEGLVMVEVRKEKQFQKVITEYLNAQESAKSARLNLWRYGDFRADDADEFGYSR
The test can be described thus: MST.

B1: NSP9 recombinant protein (Abcam, ab289608) (natural protein)
chain: NNELSPVALRQMSCAAGTTQTACTDDNALAYYNTTKGGRFVLALLSDLQDLKWARFPKSDGTGTIYTELEPPCRFVTDTPKGPKVKYLYFIKGLNNLNRGMVLGSLAATVRLQ
Take B1: the Kd (as a rule, the constant that tells how readily two partners part at equilibrium) turned out to be 8.8 µM.
